Sequences and labels used below:
B1: peptide P9 (1-13; 1 Ser) (SEQ ID NO: 53) (peptide)
peptide: SHRCFHFRRHPVA
notes: Amino acids 1-13 of P9 with Cys 1 replaced by Ser

T1 sequence (P22301 19-178 limits assumed): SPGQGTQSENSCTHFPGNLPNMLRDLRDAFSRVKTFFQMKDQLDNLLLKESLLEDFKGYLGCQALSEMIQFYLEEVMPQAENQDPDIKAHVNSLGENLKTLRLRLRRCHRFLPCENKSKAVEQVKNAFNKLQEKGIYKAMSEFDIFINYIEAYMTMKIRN

One assay has as its target T1, human IL-10 (hIL-10) (human, UniProt P22301 19-178).
T1 construct: also called human recombinant protein IL-10 (R & D Systems, cat No. 217-IL/CF); hIL-10 (e-Bioscience)
Nature of the assay: SPR (BIAcore X), human IL-10 immobilized on CM5 chip, peptide 10 µM injected. As to the method: To perform this assay, the Biosensor BIAcore X (BIAcore, AB, Uppsala, Sweden) was used. Briefly, human recombinant protein IL-10 (R & D Systems, cat No. 217-IL/CF) was covalently immobilized on the surface of flow cell 2 (FC2) of a CM5 chip (BIAcore), as described in De Crescenzo et al. 2001 (JBC, Vol 276; 29632-29643). Flow cell 1 (FC1), on the surface of which IL-10 is not immobilized, was used as a reference flow cell. The peptide solutions (10 μM) were injected at least twice in 10 mM Hepes buffer, pH 7.4, 150 mM NaCl, 0.005% Tween 20 (Polyoxyethylene Sorbitan Monolaurate) at a flow of 30 μl/min. The binding curves were processed by means of subtracting the response in FC1 from that obtained in FC2. The response in equilibrium was compared between the test peptide and an irrelevant control peptide of the same length. The control peptide used was peptide P301 (SEQ ID NO: 54) (derived from the HIV-1 coat, gp120 (301-315): […]). Each response was multiplied by a mass correction factor: MW(PX)/MW(P), where MW(PX) is the molecular weight of the test peptide P and MW(P) is the molecular weight of the control peptide (P301).
(In SPR one partner is held on a chip, and binding of the other changes the refractive index at the surface.)
For the molecule CHRCFHFRRHPVA (Amino acids 1-13 of P9) [peptide P9 (1-13) (SEQ ID NO: 47)], the binding result was “binds”.
In the case of B1, the binding result is on record as “binds”.
Still for that read-out and setting: for HRCFHFRRHPVAV (Amino acids 2-14 of P9) [peptide P9 (2-14) (SEQ ID NO: 48)] the value was “binds”.
Same read-out and setting: for RCFHFRRHPVAV (Amino acids 3-14 of P9) [peptide P9 (3-14) (SEQ ID NO: 50)] the value was “binds”.
On the same count and under the same terms, the entry for CHRCFHFRRHPVAV (Amino acids 1-14 of P9) [peptide P9 (1-14) (SEQ ID NO: 46)] is “binds”.
For the molecule HRCFHFRRHPVAVF (Amino acids 2-15 of P9) [peptide P9 (2-15) (SEQ ID NO: 45)], the binding result is reported as “binds”.
Same read-out and setting: the entry for HRCFHFRRHPVA (Amino acids 2-13 of P9) [peptide P9 (2-13) (SEQ ID NO: 49)] is “binds”.
Same read-out and setting: for CHRCFHFRRHPVAAF (P9 with Val 14 replaced by Ala) [peptide P9 (14 Ala) (SEQ ID NO: 52)] the value was “binds”; for CHRCFHFRRHPVAVA (P9 with Phe 15 replaced by Ala) [peptide P9 (15 Ala) (SEQ ID NO: 51)], “binds”.

The target of the next assay is biotinylated IL-10 (Homo sapiens (Human)) (UniProt P22301). Nature of the assay: phage display biopanning, 3 rounds on biotinylated IL-10 on streptavidin plates; clones sequenced.
biotinylated IL-10 (Homo sapiens (Human)), sequence (P22301 19-178 limits assumed, form in doubt): as the sequence (P22301 19-178 limits assumed) above
ARWMHRHHGWSDRHR [peptide P2 (SEQ ID NO: 2)] showed a No. of colonies of 29 colonies.
Same read-out and setting: for RKLRPHWLHFHPVAV [peptide P1 (SEQ ID NO: 1)] the value was 25 colonies.

These data come from US20130064790A1 (PROYECTO DE BIOMEDICINA CIMA S L, published 2013).
